Laboratory results reported in the nanobody polyreactivity screen of Harvey et al. (2022).

Test: yeast display, Sf9 membrane polyspecificity reagent, FACS + sequencing; frameworks hold sequencing errors
In short: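 Sorting gates, low and high (top ~1%), were placed on anti-HA fluorescence to track expression and on streptavidin fluorescence to track reagent binding. A clone's polyreactivity label is taken from the gate it came out of. The reagent was 10% biotinylated, detergent-solubilized Sf9 membrane, applied for 1 hour at 4 °C to galactose-induced yeast display cells.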

Row | Sequence | polyreactivity (PSR sort gate)
1 | QVQLVESGGGLVQAGGSLRLSCAASALIFKTYTMGWYRQAPGKEREFVAAITTSGGSTYYADSVKGRFTISRDNAKNTVYLQMNSLKPEDTAVYYCAAVWWKSFQGSSYRMNYWGQGTQVTVSS | high polyreactivity
2 | QVQLVESGGGLVQAGGSLRLSCAASARIYDLNAMGWYRQAPGKERELVAAITWSGDSTYYADSVKGRFTISRDTAKNTVYLQMNSLKPEDTAVYYCAAASRTSYSWVDYEFDYWGQGTQVTVSS | low polyreactivity
3 | QVQLVESGGGLVQAGGSLRLSCAASASIFLVYAMGWYRQAPGKERELVAAISRSGRTYADSVKGRFTISRDNAKNTVYLQMNSLKPEDTAVYYCAAGTKRRFEGDYWGQGTQVTVSS | high polyreactivity
4 | QVQLVESGGGLVQAGGSLRLSCAASASIVFTYVMGCYSQAPWKERELVSAITSDDNTNYADSVKGRFTISRVNAKNTVYLQMNSLKPEDTAVYYCNADTTLYPYYEYGYYDYDYWGHGTQVTVSS | low polyreactivity
5 | QVQLVESGGGLVQAGGSLRLSCAASASTFLSYAMGWYRQAPGKERELVAAITSRGGSTYYADSVKGRFTISRDIAKNTVYLQMNSLKPEDTAVYYCATRLGYGDSKVRRPYSRFYYWGQGTQVTVSS | high polyreactivity
6 | QVQLVESGGGLVQAGGSLRLSCAASASTLYRTAMGWYRPAPGKEREMVAAINYRGTRTYYADSVKGRFTISRDNAKNTVYLLMKSLNPEDTAVYYCAKDYSQFVTYPYDYWGQGTQVSVSS | low polyreactivity
7 | QVQLVESGGGLVQAGGSLRLSCAASAYTFDGYAMGWYRQAPGKERELVAAINSGGGTYYADSVKGRFTISRDNAKNSVYLQMNSLKPEDTPVYYCNASVKPSNVWSRGYDYWGQGTQVTVSS | low polyreactivity
8 | QVQLVESGGGLVQAGGSLRLSCAASDAMGWYRQAPGKERELVASISNGVSTNYADSVKGRFTISRDNAKNTVYLQMNSLKPEDTAVYYCAADAKTVGRDDLYWYEVEFDYWGQGTQVTVSS | low polyreactivity
9 | QVQLVESGGGLVQAGGSLRLSCAASDTPSSSMLMGWYRQAPGKERQLVAAISGSDGTTYYADSVKGRFTISRDNAKNTVYLQMNSLKPEDTAVYYCAADDRVDSGYIKDDYWGQGTQVTVSS | low polyreactivity
10 | QVQLVESGGGLVQAGGSLRLSCAASGATLVWNTMGWCRQAPGTERELVAGITSGGSTKYADSVKGRFTISRDNAKNTVYLQMKRLKPEDTAVYYCAADCYGQAIFIYDYWGQGTQVTVSS | low polyreactivity
11 | QVQLVESGGGLVQAGGSLRLSCAASGCIFEIYAMGWYRQAPGKERELVAAITDSGGSTYYADSVKARFTISRDNANNTVYLQMNSLKPEDTAVYYCAAVGNSYETLLFYYWGQGTQVTVSS | low polyreactivity
12 | QVQLVESGGGLVQAGGSLRLSCAASGCIFYINTMGWYRQAPGKERELVAAISQSGVGTSYADSVKGRFTISRDNAKNTVYLQMNSLIPEDTAVYYCATDFARSDVVERFDYWGQGTQVTVSS | low polyreactivity
13 | QVQLVESGGGLVQAGGSLRLSCAASGCIFYSNAMGWYRQAPGKERELVAAIARSGGSTYYADSVKGRFTISRDNAKNPVYLQMNSLKPEDTAVYYCNAKFRKADYDSWGQGTEVTVSS | high polyreactivity
14 | QVQLVESGGGLVQAGGSLRLSCAASGCIVSYYTMGWYRQAPGKERELVAAIRSSGGSTYADSVKGRFTISRDNAKNTVYLQMNCLKPEDTAVYYCAAVQTWRWVYARDYWGEGTQVTVSS | high polyreactivity
15 | QVQLVESGGGLVQAGGSLRLSCAASGCTFGTYAMGWYRQAPGKERELVAAITDSTGNTYYADSVKGRFTISRDNAKNTVYLQMNSLKPEDTAVYYCALEYVYDYFWMDYWGQATQVTVSS | high polyreactivity
16 | QVQLVESGGGLVQAGGSLRLSCAASGCTFPRYAMGWYRQAPGKERELVAAISYSGGRTYYADSVKGRFTISRDNAKNTVYLQMNSLKPEDTAVYYCATEASTKRYDYWGQGTQVTVSS | high polyreactivity
17 | QVQLVESGGGLVQAGGSLRLSCAASGCTFVSYAMGWYRQEPGKEREFVAAIAWTGGSTRYADSVKGRFTISRDNAKNTVYLQMNSLKPEDTAVYYCAARYRHYLYGYDYWGQGTQVTLSS | low polyreactivity
18 | QVQLVESGGGLVQAGGSLRLSCAASGDITYIYAMGWYRQAPGKERELVADISSSVGNTYYADSVKGRFTISRDNAKNTVYLQMNSLKPEDTAVYYCNADYVQPTESGGTYDYWGQGTQVTVSS | low polyreactivity
19 | QVQLVESGGGLVQAGGSLRLSCAASGFDFSYYDMGWYRQAPGKEREFVASIDWSGGSTYYADSVKGRFTISRDNAKNTDYLQMNSLKAEATAVYYCAAELDYFPGYDYWGQGTQVTVSS | low polyreactivity
20 | QVQLVESGGGLVQAGGSLRLSCAASGFFLGQYTMGWYRQAPGKERELVAAISSSGSTNYADSVKGRFTISRDNAKNTVYLQMNSLKPEDTAVYYCSIAGIRHVTSKFKGYHFGYWGQGTQVTVSS | low polyreactivity
21 | QVQLVESGGGLVQAGGSLRLSCAASGFHFGSYAMGWNRQAPGKERELVASISSAGRTYYADSVKGRFTISRDNAKNTVYSQMNSLKPEDTAVYYCAAESGYPVYTYVSSGDYWGQGTQVTVSS | low polyreactivity
22 | QVQLVESGGGLVQAGGSLRLSCAASGFICPIYPMGWYRQAPGKERELVAGISWRGGSTYYADSVKGRFTISRDKATYTVYLQMNSLKPEDTAVYYCAVVVQGYSTYYYWGQGTQVTVSS | high polyreactivity

Row | Sequence | polyreactivity (PSR sort gate)
23 | QVQLVESGGGLVQAGGSLRLSCAASGFICVHKAMGWYREAPGNERELVAAITWSGGRTYYADSVKGRCTISRDKAKNTVYLQKNSLKPEDTAVYYCATTVNSHVPGVSKYYYWGHGTQVTVSS | high polyreactivity
24 | QVQLVESGGGLVQAGGSLRLSCAASGFIFAAYAMGWYRQAPGKERELVAAINRSGSSTYYADSVKGRFTISRDNAKNTVYLQMNSLKPEDTAVYYCAARVVHQSRYSYEYWGQGTQVTVSS | high polyreactivity
25 | QVQLVESGGGLVQAGGSLRLSCAASGFIFADNTMGWNRQAPGKERELVAAISRRGGSTYYADSVKGRFTISRDNAKNTVYLQMNSLKPEDTAVYYCAARPFVKHDYWGQGTQVTVSS | high polyreactivity
26 | QVQLVESGGGLVQAGGSLRLSCAASGFIFADYDMGWYRQAPGKERELVDAISWSGGTTYYADSVKGRFTISRDNAKHTVYLQMNSLKPEDTAVYYCAAYWWAVYSVVTGARYVYWGQGTQVTLSS | high polyreactivity
27 | QVQLVESGGGLVQAGGSLRLSCAASGFIFAEYAMGWYRQAPGKERELVAAITWSGVTTYYADSVKGRFTISRDNAKNTVYLLMNSLKPEDTAVYYCAAGRTRRKFDYWGQGTQVTVSS | low polyreactivity
28 | QVQLVESGGGLVQAGGSLRLSCAASGFIFAEYAMGWYRQAPGKERELVVAIDVGGGSTYYADSVKGRFTISGDNAKNTVYLQMNSLKPEDTAVYYCAATQYGYWVPYQGFDYWGQGTQVTVSS | low polyreactivity
29 | QVQLVESGGGLVQAGGSLRLSCAASGFIFAFYAMGRYRQAPGKERELVASISRRSGSTYYADSVKGRFTISRDNAKNTVYLQMNSLKPEDTALYYCAADRPPCETYGYDYWGQGTQVTVSS | low polyreactivity
30 | QVQLVESGGGLVQAGGSLRLSCAASGFIFAQNTMGWYRQAPGKERELVAAITRRGGSTYYADSVKGRFTISRDNAKNTVYLQMNSLKPEDTAVYYCNVAFRSYYTSSLLDYWGQGTQVTVSS | high polyreactivity
31 | QVQLVESGGGLVQAGGSLRLSCAASGFIFARNTMGWYRQSPGKERELVAAITKSGGSTYYADSVKGRFTISRDNAKNTVYLQMNSLKPEDTAVYYCAKDPVELSPADWRADYDYWGQGTQVTVSS | low polyreactivity
32 | QVQLVESGGGLVQAGGSLRLSCAASGFIFASNTMGWYRQAPGKERELVAAISSRGGRTYYAASVKGRFTISRDNAKNTVYLQMNSLKPEDTAVYYCAAVQKGDSTLLRTKGGYWGQGTQVTVSS | high polyreactivity
33 | QVQLVESGGGLVQAGGSLRLSCAASGFIFASYTLGWYRQAPGKERELVAAISRAGSTYYADSVKGRFTISRDNAKNTVYLQMNSLKPEDTAVYYCNAVSWRTSRYDYWGQGTQVTVSS | high polyreactivity
34 | QVQLVESGGGLVQAGGSLRLSCAASGFIFAWNAMGWYRLAPGKERELVAAITSAGSTKYADSVKGRFTISRDNAKNTVYLQMNSLKPEDTAVYYCAAARFRIYCGQGTQVTVSS | high polyreactivity
35 | QVQLVESGGGLVQAGGSLRLSCAASGFIFAWYAMGWYRQAPGKERELVASISVSDGSTYYADSVKGRFTISRDNAKNTVYLQMNSLKPEDTAVYYCAADRFYDQAYDYWGQGTQVTVSS | low polyreactivity
36 | QVQLVESGGGLVQAGGSLRLSCAASGFIFAYYAMGWYRQAPGKERELVAAISSRGGTYYADSVKGRFTISRDNAKNTVYLQMNSLKPEDTAVYYCAAASYTWVSRGYEYWGQGTQVTVSS | high polyreactivity
37 | QVQLVESGGGLVQAGGSLRLSCAASGFIFAYYAMGWYRQAPGKERELVAAISYNGGTTYYADSVKGRFTISRDNAKNTVYLQMNSLKPEDSAVYYCNALVHQTYYDYDYWGQGTQVTVSS | high polyreactivity
38 | QVQLVESGGGLVQAGGSLRLSCAASGFIFAYYTMGWYRQAPGKERELVAAISWSGGTTYYADSVKGRFTISRDNAKNTVYLQMNSLKPEDTAVYYCNAYPKWLGYYEDDYWGQGTQVTVSS | low polyreactivity
39 | QVQLVESGGGLVQAGGSLRLSCAASGFIFDAYAMGWYRQAPGKERELVAAITRGNTYYADSVKGRFTISRDNAKNTVYLQMNSLKPEDTAVYYCAARYWQSYRSQVTHSSTLDYWGQGTQVTVSS | low polyreactivity
40 | QVQLVESGGGLVQAGGSLRLSCAASGFIFDDYAMGWYRQAPGKERELVAAISVSSTNYADSVKGRFTISRDNAKNTVYLQMNSLKPEDTAVYYCAADTYTYFLASYLYGQYDYWGQGTQVTVSS | low polyreactivity
41 | QVQLVESGGGLVQAGGSLRLSCAASGFIFDGNAMGWYRQAPGKERELVAAISSDGGTYYADSVKGRFTISRDNAKNTVYLQMNSLKPEDTAVYYCAAEQTLLYSFGWDEYWGQGTQVTVSS | low polyreactivity
42 | QVQLVESGGGLVQAGGSLRLSCAASGFIFDGYTMGWYRQAPGKERELVAAISRSGGRTYYADSVKGRFTISRDNAKNTVYLQMNSLKPEDTAVYYCAVRYRQYSQTVASDYGYWGQGTQVTVSS | high polyreactivity
43 | QVQLVESGGGLVQAGGSLRLSCAASGFIFDHNARGWYRQAPGKERELVAAITWRGDSTYYADSVKGRFTISRDNAKNTVYLQMNSLKPEDTAVYYCNADAILVYYGKLDYWGQGTQVTVSS | low polyreactivity
